Holding throughout (test): purified protein
Substrate in data set [1]: O=C(O)C[C@H](O)C(=O)O
Particulars: malate oxidation, co-substrate NAD+.

Substrate in data set [2]: NC(=O)C1=CN([C@@H]2O[C@H](COP(=O)(O)OP(=O)(O)OC[C@H]3O[C@@H](n4cnc5c(N)ncnc54)[C@H](O)[C@@H]3O)[C@@H](O)[C@H]2O)C=CC1
The data set is classed as biochemical, Methylosinus trichosporium. Particulars: oxaloacetate reduction, co-substrate oxaloacetate, pH 9.5, 30 °C, varied: cofactor.

Substrate in data set [3]: NC(=O)c1ccc[n+]([C@@H]2O[C@H](COP(=O)(O)OP(=O)(O)OC[C@H]3O[C@@H](n4cnc5c(N)ncnc54)[C@H](O)[C@@H]3O)[C@@H](O)[C@H]2O)c1
The data set is classed as biochemical, Methylosinus trichosporium. Conditions: malate oxidation, co-substrate malate, pH 9.5, 30 °C, varied: cofactor.

Substrate in data set [4]: O=C(O)CC(=O)C(=O)O
The class given is biochemical, Methylosinus trichosporium. Particulars: oxaloacetate reduction, co-substrate NADH, pH 9.5, 30 °C.

Substrate in data set [5]: NC(=O)C1=CN([C@@H]2O[C@H](COP(=O)(O)OP(=O)(O)OC[C@H]3O[C@@H](n4cnc5c(N)ncnc54)[C@H](O)[C@@H]3O)[C@@H](O)[C@H]2O)C=CC1
The class given is biochemical, Methylotuvimicrobium alcaliphilum. Particulars: oxaloacetate reduction, co-substrate oxaloacetate, pH 10, 30 °C, varied: cofactor.

Substrate in data set [6]: NC(=O)c1ccc[n+]([C@@H]2O[C@H](COP(=O)(O)OP(=O)(O)OC[C@H]3O[C@@H](n4cnc5c(N)ncnc54)[C@H](O)[C@@H]3O)[C@@H](O)[C@H]2O)c1
The class given is biochemical, Methylotuvimicrobium alcaliphilum. Conditions: malate oxidation, co-substrate malate, pH 10, 30 °C, varied: cofactor.

Substrate in data set [7]: O=C(O)CC(=O)C(=O)O
The class given is biochemical, Methylotuvimicrobium alcaliphilum. Conditions: oxaloacetate reduction, co-substrate NADH, pH 10, 30 °C.

B1: MDH from M. trichosporium OB3b (MDH-OB3b) (Methylosinus trichosporium OB3b) (protein)
chain: MARKKIALIGAGNIGGTLAHLIGLKELGDIVLFDIAAGVPQGKALDLAQSSPVSGFDATISGADDYSAIAGADVVIVTAGVPRQPGMSRDDLLSVNLGVVSKVGAGIKTYAPDAFVICITNPLDVMVWALQKCSGLPPAKVVGMAGVLDSARFRYFLAEELQVSVEDVSAFVLGGHGDDMVPSVRYSTVAGVPLPDLVGMGWITQAKIDAIVERTRKGGGEIVSLLKTGSAYYAPAASAIAMAESYLKDKRRVLPCAAHLSGQYGVSDLYVGVPVVIGANGVERIVEISLDSAERQMFDKSVASVRTLIAASKALDPSFA
notes: full-length, C-terminal His6 (pET22b NdeI/XhoI), E. coli BL21 (DE3), Ni-NTA; homotetramer 140 kDa; forward primer encodes (M)MARKKIA; LDH-like MDH, group III
For B1, the Km was 1.28 ± 0.17 mM in “purified protein [1]” (pH 9.5, 30 °C, pH 9.5); 0.0376 ± 0.0046 mM in “purified protein [2]”; 0.33 ± 0.04 mM in “purified protein [3]”; 0.059 ± 0.007 mM in the data set “purified protein [4]”. Further, the kcat is 516 s⁻¹ in the data set “purified protein [1]” (pH 9.5, 30 °C, pH 9.5) and 1141 s⁻¹ in “purified protein [4]”.

B2: MDH from M. alcaliphilum 20Z (MDH-20Z) (Methylotuvimicrobium alcaliphilum 20Z) (protein)
chain: MKTPVKIAVTGAAGQISYSLLFRLASGELLGPDQPMIFHLLETPQALALGALNGVVMELNDCAYPLLHKIVTTDDPDVAFKDVDYAFLIGASPRKPGMERKDLLAINAQIFSVQGQALSKVASRDVKVLVTGNPANTNALIAISNAPDLRPENFSAMMMLDHKRATFQLADKCGVLSNDIKNIIIWGNHSAGQYPDLHHAKVKGQDALSLVEWDWFVDKFIPTVQQRGAVVIQAVGRSSAASAANAALNLMRNWVFGTDEGNWISMAVPSDGSYGIEKDLVYSFPVEIKNGEISIVQGLEISDFSREKMRKSEAELKEEREAVKHLL
notes: full-length, C-terminal His6 (pET22b NdeI/XhoI), E. coli BL21 (DE3), Ni-NTA; homodimer 70 kDa
As for B2, the Km came to 0.11 ± 0.01 mM in “purified protein [1]” (pH 10, 30 °C, pH 10.0); 0.0252 ± 0.0004 mM in the data set “purified protein [5]”; 0.45 ± 0.08 mM in “purified protein [6]”; 0.34 ± 0.03 mM in “purified protein [7]”. Besides, the turnover number (kcat) in “purified protein [1]” (pH 10, 30 °C, pH 10.0) was found to be 621 s⁻¹; in “purified protein [7]”, 870 s⁻¹.

Source of the values: PMC5023229, “Role of NAD^+-Dependent Malate Dehydrogenase in the Metabolism of Methylomicrobium alcaliphilum 20Z and Methylosinus trichosporium OB3b” (Microorganisms, 2015).
